Assay results from patent US20240327525A1 (VIB VZW, published 2024).
Read-outs that look alike come from different tables or passages of the source.

What was measured:
[1] = molecular target: T1, human CI-M6PR domain1-3His6 (human, UniProt P11717 41-467); assay: BLI, association pH 7.4, dissociation at pH 5.0, mean of local fits
T1 construct: Recombinant, made in HEK293 cells; Biotinylated with NHS-PEG4-biotin for BLI; unlabelled in SEC-MALLS and crystallisation; also called CI-M6PR hDom1-3His6; hDom1-3His6
Protocol: (§1) FIG. 19-20. Association-dissociation graphs of anti-CI-M6PR VHH1H11 and VHH1H52, resp. analyzed using BLI. BLI was performed on an Octet Red96 (FortéBio) instrument in kinetics buffer (0.2 M Na₂HPO₄, 0.1 M Na⁺citrate, 0.01% bovine serum albumin, 0.002% Tween-20). Biotinylated human domain₁₋₃His₆ was immobilized on Streptavidin SA biosensors (Sartorius) to a signal of 0.6 nm. A 120 s association phase in VHH 1H11 (FIG. 19) or VHH 1H52 (FIG. 20) serially diluted (0-200 nM) in pH 7.4 phosphate citrate buffer, was followed by 420 s of dissociation in phosphate buffer of either pH 7.4, 6.5, 6.0, 5.5 or 5.0. Between assays, biosensors were regenerated by three times 10 s exposure to regeneration buffer (10 mM glycine pH 3). The degree of association and dissociation was measured in δ nm over time(s).
(§2) For VHH 1H11 (SEQ ID NO: 24) and VHH 1H52 (SEQ ID NO: 25), a BLI experiment was performed in which the human CI-M6PR domain₁₋₃His₆ was biotinylated and coupled to streptavidin biosensor tips. […] For measurements with association at pH 7.4 and dissociation at pH 6.5, 6.0, 5.5 and 5.0, the depicted dissociation rate constants are an average of the parameters determined by local curve fitting of the dissociation of 200, 100 and 50 nM VHH. […]

[2] = molecular target: T1, human CI-M6PR domain1-3His6; assay: BLI, association pH 7.4, dissociation at pH 5.5, mean of local fits
Protocol: as §1, §2

[3] = molecular target: T1, human CI-M6PR domain1-3His6; assay: BLI, biotinylated antigen on SA tips, global 1:1 fit, association at pH 7.4
Protocol: (§3) For VHH 1H11 (SEQ ID NO: 24) and VHH 1H52 (SEQ ID NO: 25), a BLI experiment was performed in which the human CI-M6PR domain₁₋₃His₆ was biotinylated and coupled to streptavidin biosensor tips. After loading, the tips were incubated with VHHs serially diluted in pH 7.4 kinetic buffer during the association phase and dissociation was performed at pH 7.4, pH 6.5, pH 6.0, pH 5.5 and pH 5.0. All biosensor tips were then regenerated before analysis of the subsequent VHH. […] When both association and dissociation were performed at pH 7.4, a global fit was performed according to the 1:1 binding model of which the resulting affinity constants (KD), association (kₒₙ) and dissociation rate constants (koff) are shown. For measurements with association at pH 7.4 and dissociation at pH 6.5, 6.0, 5.5 and 5.0, the depicted dissociation rate constants are an average of the parameters determined by local curve fitting of the dissociation of 200, 100 and 50 nM VHH. Association-dissociation curves for VHH1H11 and VHH1H52 are shown in FIG. 19 and FIG. 20, respectively.

[4] = molecular target: T1, human CI-M6PR domain1-3His6; assay: BLI, association pH 7.4, dissociation at pH 6.0, mean of local fits
Protocol: as §1, §2

[5] = molecular target: T1, human CI-M6PR domain1-3His6; assay: BLI, biotinylated antigen on SA tips, global 1:1 fit, dissociation at pH 7.4
Protocol: as §3

[6] = molecular target: T1, human CI-M6PR domain1-3His6; assay: BLI, association pH 7.4, dissociation at pH 6.5, mean of local fits
Protocol: as §3

[7] = molecular target: T1, human CI-M6PR domain1-3His6; assay: BLI, biotinylated antigen on SA tips, global 1:1 fit, association at pH 7.4; remark: listed apart in the source
Protocol: (§4) Biotinylated human domain₁₋₃His₆ was immobilized on Streptavidin SA biosensors (Sartorius) to a signal of 0.6 nm. […] Between runs, biosensors were regenerated by three times 10 s exposure to regeneration buffer (10 mM glycine pH 3). The degree of association and dissociation was measured in δ nm over time(s).
as §4, with “FIGS. 10A-10E. […] BLI was performed on an Octet Red96 (FortéBio) instrument in kinetics buffer (0.2 M Na₂HPO₄, 0.1 M Na⁺citrate, 0.01% bovine serum albumin, 0.002% Tween-20). Biotinylated” for “Biotinylated”, “assays,” for “runs,”
(§5) After loading, the tips were incubated with VHHs serially diluted in pH 7.4 kinetic buffer during the association phase and dissociation was performed at pH 7.4, pH 6.5, pH 6.0, pH 5.5 and pH 5.0. All biosensor tips were then regenerated before analysis of the subsequent VHH. Table 3 summarizes the kinetic parameters retrieved after processing and curve fitting of the BLI measurements.

[8] = molecular target: human cation-independent mannose-6-phosphate receptor on cells (human, UniProt P11717 41-2491); assay: cell-based or functional assay
[9] = molecular target: T1, human CI-M6PR domain1-3His6; assay: BLI, association pH 7.4, dissociation at pH 6.5, mean of local fits; remark: listed apart in the source
Protocol: as §4, with “FIGS. 9A-9E. […] BLI was performed on an Octet Red96 (FortéBio) instrument in kinetics buffer (0.2 M Na₂HPO₄, 0.1 M Na⁺citrate, 0.01% bovine serum albumin, 0.002% Tween-20). Biotinylated” for “Biotinylated”
as §4, with “FIGS. 10A-10E. […] BLI was performed on an Octet Red96 (FortéBio) instrument in kinetics buffer (0.2 M Na₂HPO₄, 0.1 M Na⁺citrate, 0.01% bovine serum albumin, 0.002% Tween-20). Biotinylated” for “Biotinylated”, “assays,” for “runs,”

[10] = molecular target: T1, human CI-M6PR domain1-3His6; assay: BLI, association pH 7.4, dissociation at pH 5.5, mean of local fits; remark: listed apart in the source
Protocol: as §4, with “FIGS. 9A-9E. […] BLI was performed on an Octet Red96 (FortéBio) instrument in kinetics buffer (0.2 M Na₂HPO₄, 0.1 M Na⁺citrate, 0.01% bovine serum albumin, 0.002% Tween-20). Biotinylated” for “Biotinylated”
as §4, with “FIGS. 10A-10E. […] BLI was performed on an Octet Red96 (FortéBio) instrument in kinetics buffer (0.2 M Na₂HPO₄, 0.1 M Na⁺citrate, 0.01% bovine serum albumin, 0.002% Tween-20). Biotinylated” for “Biotinylated”, “assays,” for “runs,”

[11] = molecular target: T1, human CI-M6PR domain1-3His6; assay: BLI, biotinylated antigen on SA tips, global 1:1 fit, dissociation at pH 7.4; remark: listed apart in the source
Protocol: as §4
as §4, with “FIGS. 10A-10E. […] BLI was performed on an Octet Red96 (FortéBio) instrument in kinetics buffer (0.2 M Na₂HPO₄, 0.1 M Na⁺citrate, 0.01% bovine serum albumin, 0.002% Tween-20). Biotinylated” for “Biotinylated”, “assays,” for “runs,”
as §5

[12] = molecular target: T1, human CI-M6PR domain1-3His6; assay: BLI, association pH 7.4, dissociation at pH 5.0, mean of local fits; remark: listed apart in the source
Protocol: as §4, with “FIGS. 9A-9E. […] BLI was performed on an Octet Red96 (FortéBio) instrument in kinetics buffer (0.2 M Na₂HPO₄, 0.1 M Na⁺citrate, 0.01% bovine serum albumin, 0.002% Tween-20). Biotinylated” for “Biotinylated”
as §4, with “FIGS. 10A-10E. […] BLI was performed on an Octet Red96 (FortéBio) instrument in kinetics buffer (0.2 M Na₂HPO₄, 0.1 M Na⁺citrate, 0.01% bovine serum albumin, 0.002% Tween-20). Biotinylated” for “Biotinylated”, “assays,” for “runs,”

[13] = molecular target: T1, human CI-M6PR domain1-3His6; assay: BLI at pH 7.4
[14] = molecular target: T1, human CI-M6PR domain1-3His6; assay: BLI, association pH 7.4, dissociation at pH 6.0, mean of local fits; remark: listed apart in the source
Protocol: as §4, with “FIGS. 9A-9E. […] BLI was performed on an Octet Red96 (FortéBio) instrument in kinetics buffer (0.2 M Na₂HPO₄, 0.1 M Na⁺citrate, 0.01% bovine serum albumin, 0.002% Tween-20). Biotinylated” for “Biotinylated”
as §4, with “FIGS. 10A-10E. […] BLI was performed on an Octet Red96 (FortéBio) instrument in kinetics buffer (0.2 M Na₂HPO₄, 0.1 M Na⁺citrate, 0.01% bovine serum albumin, 0.002% Tween-20). Biotinylated” for “Biotinylated”, “assays,” for “runs,”

[15] = molecular target: T1, human CI-M6PR domain1-3His6; assay: not stated in the sentence (pH-dependent dissociation)

Row | koff [1] | koff [2] | kon [3] | koff [4] | Kd [5] | koff [5] | koff [6] | kon [7] | internalisation rate (live-cell imaging of AF488-VHH on MCF7 cells) [8] | koff [9] | koff [10] | Kd [11] | koff [11] | koff [12] | Kd [13] | koff [14] | fold higher dissociation rate at pH 6.0 versus pH 7.4 [15] | Binder
1 | 0.2 s⁻¹ | 0.051 s⁻¹ | 1e+06 M⁻¹ s⁻¹ | 0.03 s⁻¹ | 31 nM | 0.032 s⁻¹ | 0.067 s⁻¹ |  |  |  |  |  |  |  |  |  |  | anti-CI-M6PR VHH 1H52 (VHH, Made in E. coli (pHEN6c), IMAC purified; tag not specified) VHH: QVQLQESGGGLVQPGGSLRLSCTASGFTWDSYVIGWFRQAPGKGREGVSCLDVDDGSIYYHDSAKGRFSISRDNAKNTVYLQMNSLKPEDTAVYYCAAVNRASMRFRRCLQVLRYDYWGQGTQVTVSS
2 | 0.0083 s⁻¹ | 0.0063 s⁻¹ | 510000 M⁻¹ s⁻¹ | 0.0051 s⁻¹ | 4.9 nM | 0.0025 s⁻¹ | 0.0048 s⁻¹ |  |  |  |  |  |  |  |  |  |  | anti-CI-M6PR VHH 1H11 (VHH, Made in E. coli (pHEN6c), IMAC purified; tag not specified) VHH: QVQLQESGGGLVQPGGSLRLSCAASGIIFSDNRMDWYRQAPGKQREWVATLASYGWKTYADSVKDRFTISRDNAKNTVNLYMNSLQPEDTAVYYCNSGQYWGQGTQVTVSS

Continued, binder first:

Row | Binder | koff [1] | koff [2] | kon [3] | koff [4] | Kd [5] | koff [5] | koff [6] | kon [7] | internalisation rate (live-cell imaging of AF488-VHH on MCF7 cells) [8] | koff [9] | koff [10] | Kd [11] | koff [11] | koff [12] | Kd [13] | koff [14] | fold higher dissociation rate at pH 6.0 versus pH 7.4 [15]
3 | anti-CI-M6PR VHH8 (VHH, Purified by IMAC, so tagged; Labelled with Alexa Fluor 488 (NHS ester) in the imaging experiments) VHH: QVQLQESGGGLVQAGGSLRLSCEASGRTFNTYNWGWFRQAPGKEREFVAAIRWSSSKTSYADSVKGRFTISRDNAKNTIYLQMNSLKPEDTAVYYCAASIVDFTTNPSHFGSWGQGTQVTVSS |  |  |  |  |  |  |  | 610000 M⁻¹ s⁻¹ | 673000 summed AF-voxels/minute | 0.00084 s⁻¹ | 0.0034 s⁻¹ | 0.534 nM | 0.00032 s⁻¹ | 0.023 s⁻¹ | ~3.35 nM | 0.00091 s⁻¹ | 
4 | anti-CI-M6PR VHH7 (VHH, Purified by IMAC, so tagged; Labelled with Alexa Fluor 488 (NHS ester) in the imaging experiments) VHH: QVQLQESGGGLVQPGGSLRLSCAASGIIFSDNRMDWYRQAPGKQREWVATLASYGWKTYADSVKGRFTISRDNTKNTVYLRMNSLKPEDTAVYYCKASSPVLNDIWGQGTQVTVSS |  |  |  |  |  |  |  | 540000 M⁻¹ s⁻¹ | 1.26e+06 summed AF-voxels/minute | 0.0091 s⁻¹ | 0.013 s⁻¹ | 10.1 nM | 0.0055 s⁻¹ | 0.017 s⁻¹ |  | 0.0099 s⁻¹ | 5 fold
